Data: patent US20090136547A1, “ZWITTERIONIZATION OF CAPSULAR SACCHARIDES” (NOVARTIS VACCINES AND DIAGNOSTICS SRL, priority 2005, published 2009)
Ends that are not written are not given here. * marks the point of attachment. Palmitoyl = CCCCCCCCCCCCCCCC(=O)*

Molecular target: T1, TLR2 receptor (Homo sapiens, UniProt O60603)
T1 construct: endogenous in cells; host or cells: purified monocytes
Experiment: Monocyte activation (TNFα, CD80/MHC-II) in absence or presence of anti-TLR2 antibody
Type: cell-based
Conditions: FIG. 29 and FIG. 30

T1 sequence (O60603 21-784): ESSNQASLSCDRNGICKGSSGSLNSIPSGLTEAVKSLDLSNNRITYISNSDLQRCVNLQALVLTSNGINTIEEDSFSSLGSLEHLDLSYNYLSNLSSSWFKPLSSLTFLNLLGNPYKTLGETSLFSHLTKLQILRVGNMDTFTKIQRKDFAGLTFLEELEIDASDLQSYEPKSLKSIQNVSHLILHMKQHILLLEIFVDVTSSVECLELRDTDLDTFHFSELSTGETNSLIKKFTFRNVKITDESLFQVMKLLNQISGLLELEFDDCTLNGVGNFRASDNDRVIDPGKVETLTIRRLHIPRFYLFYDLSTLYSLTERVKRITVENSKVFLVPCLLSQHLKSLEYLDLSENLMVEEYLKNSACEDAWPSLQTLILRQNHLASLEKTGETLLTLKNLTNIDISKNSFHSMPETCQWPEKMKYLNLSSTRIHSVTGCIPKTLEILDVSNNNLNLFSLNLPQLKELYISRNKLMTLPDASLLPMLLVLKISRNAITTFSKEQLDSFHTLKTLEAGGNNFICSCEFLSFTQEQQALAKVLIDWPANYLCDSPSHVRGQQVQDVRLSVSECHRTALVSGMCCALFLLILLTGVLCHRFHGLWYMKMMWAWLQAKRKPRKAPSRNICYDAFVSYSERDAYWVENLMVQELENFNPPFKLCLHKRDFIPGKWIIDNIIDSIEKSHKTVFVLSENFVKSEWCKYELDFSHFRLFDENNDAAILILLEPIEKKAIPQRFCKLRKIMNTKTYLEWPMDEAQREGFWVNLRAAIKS

- effect of anti-TLR2 antibody on activation (TNFα assay, CD80/MHC-II assay): able to block activation
Substance: N-palmitoyl-S-[2,3-bis(palmitoyloxy)-(2R,S)-propyl]-(R)-cysteinyl-seryl-(lysyl)(3)-lysine (Palmitoyl-C(2,3‑bis(palmitoyloxy)‑(2R,S)‑propyl)SKKKK) [PAMcsk, synthetic lipopeptide positive control]
